We go through four molecules from doi:10.1101/2025.08.07.669152 (bioRxiv, 2025).

First the molecules themselves.
B1: Nb 2-38 (VHH)
VHH: QVQLVESGGGLVQAGGSLRLSCAAAARFSTSAMGWFRQAPGKEREFVAAISWSNTNTHYADTVKGRFTISADTAKETVDLQMNSLKPEDTAVYYCVQGGWGIRQPIIVDYWGKGTQVTVSS
B2: Nb 2-31 (VHH)
VHH: QVQLVESGGGLVQAGESLRLSCAASKPTFRNFAAGWFRQTPGKDREFVAVIEYDGDSAYYADSVKGRFTISRDNAKNTVYLQMNRLKPGDTAVYICAIGGNHYDPSKYYTADEYDYWGQGTQVTVSS
B3: Nb 1-22 (VHH)
VHH: HVQLVESGGGLVQPGGSLRLSCAASGRSFNSYLMGWFRQAPGKEREFVAWISGSPHDIIRYRDSVKDRFTISRDNAKNTVYLQMNSLKPVDTAVYYCAVGSLRVGSFSPDYWGQGTQVTVSS
B4: Nb 2-45 (VHH)
VHH: QVQLVESGGGLVQAGGSLRLSCTASGYDFSILAIAWYRQAPGKERELVAAISRVGSTDYADSVKGRFTISRDNTKNTVSLQMDSLKPEDTAVYYCNAGIPMTTVLSGLGFWGQGTQVTVSS

The target in the assay is WT RBD of SARS-CoV-2 (S protein residues 319–539) (SARS-CoV-2, wild type (GenBank …, UniProt P0DTC2)). The assay can be described thus: ELISA.
Take B1: the binding result is recorded as “binds”.

As to B2, the binding result was “binds”.

B3: the binding result is listed as “binds”.

Regarding B4, the binding result is “binds”.
